{
  "source": "paper PMC7866087",
  "about": "“Evaluation of Computationally Designed Peptides against TWEAK, a Cytokine of the Tumour Necrosis Factor Ligand Family” (International Journal of Molecular Sciences, 2021)",
  "molecules": {"B1": {"name": "tumour necrosis factor-like weak inducer of apoptosis (protein, UniProt O43508 94-249, looked up)", "Tumor necrosis factor ligand …": "SAPKGRKTRARRAIAAHYEVHPRPGQDGAQAGVDGTVSGWEEARINSSSPLRYNRQIGEFIVTRAGLYYLYCQVHFDEGKAVYLKLDLLVDGVLALRCLEEFSATAASSLGPQLRLCQVSGLLALRPGSSLRIRTLPWAHLKAAPFLTYFGLFQVH"}},
  "key": {"[1]": {"tested_on": "TWEAK-Fn14 signalling pathway, BRV5 cells", "experiment": "Cell-based screening of pooled peptides, gene expression microarray in TWEAK-stimulated BRV5 cells", "design": "species or system human", "conditions": "6 h; for BIRC2 expression Z-Score / HSP90B1 expression Z-Score / IL6 expression Z-Score / JUN expression Z-Score / MAP4K4 expression Z-Score / MAPK14 expression Z-Score / NFKB2 expression Z-Score / TNFRSF12A expression Z-Score / TRAF2 expression Z-Score: BRV5 + TWEAK, normalized to NARS2", "description": "To optimize resources and rationalize the analysis, we ran the screening by pooling the 50 peptides into six groups, i.e., Pool 1 to 6, containing […] peptides each and displaying similar MW (Supplementary Materials Table S1). We monitored the activity of pooled peptides on TWEAK-Fn14 signalling pathways following the design described in Material and Methods. BRV5 cells were cultured in the presence or absence of TWEAK and treated with peptides at different time points.\nAs a preliminary study, we performed an experiment with 435-P and BRV5 cells to assess the effect on the level of expression on the selected genes in cultures with or without TWEAK (Supplementary Materials Figure S2A). Negative controls without pool 1 peptides were included in the protocol to avoid unspecific biases in the inhibition ratio. To achieve optimal conditions to measure peptide activity, preventing peptide degradation in the culture medium, the effect of peptides was evaluated by priming cultures with peptide every hour (0–5 h), every two hours (0, 2, and 4 h) and every three hours (0 and 3 h). In these experiments, the housekeeping gene NARS2 was used to normalize gene expression.\n(§1) Three different cell lines were used in this study: BRV5, MDA-MB 435 (435-P), and HT29. The BRV5 is a highly metastatic brain cell line, obtained in one of our laboratories by primary culture from a brain of a nude mouse inoculated with human 435-Br1 brain metastatic cells, as previously described and used as a model to test the peptides in cell cultures. […] The triple negative 435-P cell line is a useful human breast cancer model that expresses both epithelial and melanocytic markers, and was included as the parental cell from which 435-Br1 metastatic variant was initially originated (both cell lines kindly provided by Dr Fabra at IDIBELL Institute, Hospitalet de Llobregat, Spain). Finally, HT29 human colon carcinoma cells obtained from the European Type Culture Collection (ECACC 91072201) were used as a positive control of TWEAK dependent Fn14 over-expressing cells to evaluate TWEAK-Fn14 axis of brain metastatic variants.\nAppropriate cell culture conditions were established as the controls needed in the expression of genes with and without peptides and with and without TWEAK activation, both as pools and individually (see Supplementary Materials Figure S2). The protocol started with the seeding of 125,000 cells/well in 500 µL of culture media supplemented with 10% fetal bovine serum (CM+FBS10%) in 24-well dishes for 24 h before removing FBS (CM-FBS). After overnight starvation in CM-FBS culture, different peptide treatment conditions (at final concentration of 450 µM) were established in the presence or absence of TWEAK (25 ng/mL final concentration) (Peprotech EC, Ltd., London, UK). Some cells were treated with peptides at a single, unique, initial dose (time 0) while other were treated with repeated doses to account for the effect cell-culture degradation. These include a repeated treatment every hour (i.e., […]), every two hours (time 0, 2, and 4) and every three hours (time 0 and 3)—see Supplementary Materials Figure S2 for diagrammatic depiction. At time 6 (after six hours) cells were lysed and RNA extracted for transcriptomic analyses (see next). Cell were culture for six hours as this was the time needed to achieve the highest upregulation of the TWEAK-Fn14 axis upon TWEAK treatment as shown in previous time-course RT-PCR experiments (see Figure 2).\nRNA from cells was extracted 6 h after treatments by direct lysis on the well. The RNeasy Micro kit (Qiagen, Hilden, Germany) was used to isolate total RNA from cell lysate following manufacturer’s protocols including an additional step of digestion with DNase I (Qiagen, Hilden, Germany). Total RNA concentration was measured in a NanoDrop 1000 spectrophotometer (Thermo Scientific, Waltham, MA, USA). […]"}, "[2]": {"tested_on": "435-P cells, TNFR2F12A gene expression", "experiment": "Fn14 gene expression with TWEAK, 435-P (RT-PCR)", "format": "cell-based, human", "conditions": "for Normalized level of expression of Fn14 gene: TWEAK 25 ng/ml", "description": "Figure 1 Characterization TWEAK-dependent/not dependent cells. (A) Representative images of Fn14 expression (pink) in BRV5, 435-P and HT29 cells labelled by immunofluorescence. The protein has similar expression in BRV5 and the positive control HT29 cells, and less expressed in 435-P. DAPI (blue) was used for nucleus identification. (B) RT-PCR analysis to quantify Fn14 gene expression of cells cultured in the presence (dark green) or absence (light green) of TWEAK (25 ng/mL) at 48 h. Up-regulation of Fn14 is observed only in HT29 and BRV5 cells. Bars and error bars represent the average and standard deviation as calculated from three replicates respectively. P values represented as: * - significant (Pvalue: 0.01 to 0.05) and **- very-significant (Pvalue: 0.001 to 0.01).\nSince the transcriptional activation of Fn14 expression can be induced in cancer cells by the TWEAK-Fn14 interaction, either in a paracrine or autocrine manner, we investigated whether TWEAK transactivates Fn14 (TNFR2F12A) in BRV5 brain metastatic cells. We primed cells with TWEAK and analysed TNFR2F12A gene expression including in the analysis 435-Br1 cells, the first generation of brain metastatic cells BRV5.\nas §1"}, "[3]": {"conditions": "pools, BRV5 + TWEAK 25 ng/mL, 450 µM every hour"}},
  "data": [
    {"molecule": "B1", "values": [
      {"measurement": "regulation of probe genes by pooled peptides", "setting": "[1]; BRV5 + TWEAK 25 ng/mL, peptides 450 µM every hour, versus T", "result": "higher level of expression overall when compared to untreated and unstimulated cells"},
      {"measurement": "downstream activation of MAP4K4 (NIK), TRAF2, and BIRC2 (IAP2)", "setting": "[1]; TWEAK, BRV5", "result": "occurred at 6 h in BRV5 cells"},
      {"measurement": "BIRC2 mRNA expression (normalized to NARS2)", "setting": "[1]; [3]", "result": 1.448},
      {"measurement": "HSP90B1 mRNA expression (normalized to NARS2)", "setting": "[1]; [3]", "result": 8.392},
      {"measurement": "IL6 mRNA expression (normalized to NARS2)", "setting": "[1]; [3]", "result": 0.0007818},
      {"measurement": "JUN mRNA expression (normalized to NARS2)", "setting": "[1]; [3]", "result": 0.04566},
      {"measurement": "MAP4K4 mRNA expression (normalized to NARS2)", "setting": "[1]; [3]", "result": 0.7707},
      {"measurement": "MAPK14 mRNA expression (normalized to NARS2)", "setting": "[1]; [3]", "result": 0.5877},
      {"measurement": "NFKB2 mRNA expression (normalized to NARS2)", "setting": "[1]; [3]", "result": 0.193},
      {"measurement": "TNFRSF12A mRNA expression (normalized to NARS2)", "setting": "[1]; [3]", "result": 0.06934},
      {"measurement": "TRAF2 mRNA expression (normalized to NARS2)", "setting": "[1]; [3]", "result": 0.0999},
      {"measurement": "BIRC2 expression Z-Score", "setting": "[1]; pools", "result": 1.233},
      {"measurement": "HSP90B1 expression Z-Score", "setting": "[1]; pools", "result": -0.5008},
      {"measurement": "IL6 expression Z-Score", "setting": "[1]; pools", "result": -1.234},
      {"measurement": "JUN expression Z-Score", "setting": "[1]; pools", "result": -1.012},
      {"measurement": "MAP4K4 expression Z-Score", "setting": "[1]; pools", "result": -0.5276},
      {"measurement": "MAPK14 expression Z-Score", "setting": "[1]; pools", "result": 0.2377},
      {"measurement": "NFKB2 expression Z-Score", "setting": "[1]; pools", "result": -0.03742},
      {"measurement": "TNFRSF12A expression Z-Score", "setting": "[1]; pools", "result": -0.4905},
      {"measurement": "TRAF2 expression Z-Score", "setting": "[1]; pools", "result": 1.245},
      {"measurement": "BIRC2 expression Z-Score", "setting": "[1]; pools, listed as T", "result": 1.2334},
      {"measurement": "HSP90B1 expression Z-Score", "setting": "[1]; pools, listed as T", "result": -0.5008},
      {"measurement": "IL6 expression Z-Score", "setting": "[1]; pools, listed as T", "result": -1.2337},
      {"measurement": "JUN expression Z-Score", "setting": "[1]; pools, listed as T", "result": -1.0121},
      {"measurement": "MAP4K4 expression Z-Score", "setting": "[1]; pools, listed as T", "result": -0.5276},
      {"measurement": "MAPK14 expression Z-Score", "setting": "[1]; pools, listed as T", "result": 0.2377},
      {"measurement": "NFKB2 expression Z-Score", "setting": "[1]; pools, listed as T", "result": -0.0374},
      {"measurement": "TNFRSF12A expression Z-Score", "setting": "[1]; pools, listed as T", "result": -0.4905},
      {"measurement": "TRAF2 expression Z-Score", "setting": "[1]; pools, listed as T", "result": 1.2452},
      {"measurement": "TNFR2F12A gene expression", "setting": "[2]; TWEAK 25 ng/mL, 48 h", "result": "decreased TNFR2F12A gene expression in 435-P cells with regard to controls (p = 0.0246)"},
      {"measurement": "Normalized level of expression of Fn14 gene", "setting": "[2]; technical replicate 1", "result": 0.1395},
      {"measurement": "Normalized level of expression of Fn14 gene", "setting": "[2]; technical replicate 2", "result": 0.1292},
      {"measurement": "Normalized level of expression of Fn14 gene", "setting": "[2]; technical replicate 3", "result": 0.1408}
    ]}
  ]
}
